A word on the Kd: it is the equilibrium constant for the complex coming apart. Lower therefore signals higher affinity.

Assay in all cases: BLI
For orientation: BLI is a label-free optical method that tracks binding on a fibre tip over time.

Test [1] concerns the target biotinylated IQN22 (HIV-1 HXB2) (UniProt P04578).
In test [2] the target is biotinylated IQN17 (HIV-1 HXB2) (UniProt P04578).
For another test, the target named is T1, biotinylated IQN22 (HIV-1 HXB2 gp41 565-586 fused to …, chimera, not fully specified; biotin (position not given)).
T1 chain: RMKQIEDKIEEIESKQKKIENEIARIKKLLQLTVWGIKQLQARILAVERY

For a further test, the target named is T2, biotinylated IQN17 (HIV-1 HXB2 gp41 565-581 fused to …, chimera, not fully specified; biotin (position not given)).
T2 chain: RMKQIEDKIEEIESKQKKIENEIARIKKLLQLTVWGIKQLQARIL

As for PIE12 (peptide), the dissociation constant Kd in test [1] came out at 2 nM; in test [2], 3 nM.

B1: D5 Fab (Fab, V domains shown)
VH: QVQLVQSGAEVRKPGASVKVSCKASGDTFSSYAISWVRQAPGQGLEWMGGIIPIFGTANYAQAFQGRVTITANESTSTAYMELSSLRSEDTAIYYCARDNPTLLGSDYWGAGTLVTVSS
VL: DIQMTQSPSTLSASIGDRVTITCRASEGIYHWLAWYQQKPGKAPKLLIYKASSLASGAPSRFSGSGSGTDFTLTISSLQPDDFATYYCQQYSNYPLTFGGGTKLEIK
In the case of B1, the Kd was determined as 5 nM in the test with biotinylated IQN22 and 14 nM with biotinylated IQN17.
